Data: US20080096187A1

Tests used:
Assay in all cases: cell-based or functional assay
[1] = molecular target: HIV-1 YU2 envelope glycoprotein (HIV-1 YU2) (UniProt P35961)
[2] = molecular target: HIV-2 7312A envelope glycoprotein (HIV-2 isolate 7312A)
[3] = molecular target: HIV-2 7312A envelope glycoprotein with substitutions 660 (K to A), 662 (N to D), 663 (S to K) and 665 (D to A) (HIV-2 isolate 7312A)
[4] = molecular target: HIV-2 UC-1 envelope glycoprotein (HIV-2 UC1) (UniProt Q76638)
[5] = molecular target: HIV-2 7312A envelope glycoprotein with substitutions 675 (L to I) and 676 (A to T) (HIV-2 isolate 7312A)
[6] = molecular target: HIV-2 ST envelope glycoprotein (HIV-2 ST) (UniProt P20872)
[7] = molecular target: HIV-2 7312A/H419R envelope glycoprotein (HIV-2 isolate 7312A)
[8] = molecular target: HIV-2 7312A/Q422L envelope glycoprotein (HIV-2 isolate 7312A)
[9] = molecular target: HIV-2 7312A/V434M envelope glycoprotein (HIV-2 isolate 7312A)

Row | Substance | IC50 (neutralization) [1] | IC50 (neutralization) [2] | IC50 (neutralization) in the absence of sCD4 [2] | IC50 (neutralization) in the presence of sCD4 [2] | IC50 (neutralization) [3] | IC50 (neutralization) in the absence of sCD4 [4] | IC50 (neutralization) in the presence of sCD4 [4] | IC50 (neutralization) [5] | IC50 (neutralization) [6] | IC50 (neutralization) [4] | IC50 (neutralization) in the absence of sCD4 [7] | IC50 (neutralization) in the presence of sCD4 [7] | IC50 (neutralization) in the absence of sCD4 [8] | IC50 (neutralization) in the presence of sCD4 [8] | IC50 (neutralization) in the absence of sCD4 [9] | IC50 (neutralization) in the presence of sCD4 [9]
1 | 2F5 (antibody) | 25 µg/mL | > 50 µg/mL | > 25 µg/mL | > 25 µg/mL | < 0.1 µg/mL | > 25 µg/mL | > 25 µg/mL | – | – | – | – | – | – | – | – | –
2 | 2G12 (antibody) | – | – | > 25 µg/mL | > 25 µg/mL | – | > 25 µg/mL | > 25 µg/mL | – | – | – | – | – | – | – | – | –
3 | 4E10 (antibody) | 25 µg/mL | > 50 µg/mL | – | – | – | – | – | 0.8 µg/mL | 0.1 µg/mL | 1.2 µg/mL | – | – | – | – | – | –
4 | A32 (antibody) | – | – | > 25 µg/mL | > 25 µg/mL | – | > 25 µg/mL | > 25 µg/mL | – | – | – | – | – | – | – | – | –
5 | E51 (antibody) | – | – | > 25 µg/mL | > 25 µg/mL | – | > 25 µg/mL | 13 µg/mL | – | – | – | > 25 µg/mL | 22 µg/mL | > 25 µg/mL | > 25 µg/mL | > 25 µg/mL | 4 µg/mL
6 | ED47 (antibody) | – | – | > 25 µg/mL | > 25 µg/mL | – | > 25 µg/mL | > 25 µg/mL | – | – | – | > 25 µg/mL | 4.7 µg/mL | > 25 µg/mL | > 25 µg/mL | > 25 µg/mL | > 25 µg/mL
7 | ED49 (antibody) | – | – | > 25 µg/mL | 5.4 µg/mL | – | > 25 µg/mL | 12 µg/mL | – | – | – | > 25 µg/mL | 3.3 µg/mL | > 25 µg/mL | 3 µg/mL | > 25 µg/mL | 2.4 µg/mL
8 | F105 (antibody) | – | – | > 25 µg/mL | > 25 µg/mL | – | > 25 µg/mL | > 25 µg/mL | – | – | – | – | – | – | – | – | –
9 | X5 (antibody) | – | – | > 25 µg/mL | > 25 µg/mL | – | > 25 µg/mL | > 25 µg/mL | – | – | – | > 25 µg/mL | > 25 µg/mL | > 25 µg/mL | > 25 µg/mL | > 25 µg/mL | 2.5 µg/mL
10 | b12 (antibody) | 3 µg/mL | > 50 µg/mL | > 25 µg/mL | > 25 µg/mL | – | > 25 µg/mL | > 25 µg/mL | – | – | – | – | – | – | – | – | –
